Publication PMC10397247
Blank lines part the entries; values can stand above or below the binder they belong to.

Tests used:
4H1478-AA = molecular target: T1, 4H1478-AA; assay: two-hybrid library CCmax;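 further: natural log of median RNA to DNA barcode read ratio; higher means stronger binding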
T1 chain: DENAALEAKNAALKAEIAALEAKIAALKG

4H1579-AA = molecular target: T2, 4H1579-AA; assay: two-hybrid library CCmax; settings: mean of both orientations;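 further: natural log of median RNA to DNA barcode read ratio; higher means stronger binding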
T2 chain: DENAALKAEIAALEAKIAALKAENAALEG

4H1597-AA = molecular target: T3, 4H1597-AA; assay: two-hybrid library CCmax; settings: mean of both orientations;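 further: natural log of median RNA to DNA barcode read ratio; higher means stronger binding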
T3 chain: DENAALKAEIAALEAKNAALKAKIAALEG

4H1626-AA = molecular target: T4, 4H1626-AA; assay: two-hybrid library CCmax; settings: mean of both orientations;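 further: natural log of median RNA to DNA barcode read ratio; higher means stronger binding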
T4 chain: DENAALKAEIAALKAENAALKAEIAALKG

4H171-AA = molecular target: T5, 4H171-AA; assay: two-hybrid library CCmax; settings: mean of both orientations
T5 chain: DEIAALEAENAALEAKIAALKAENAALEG

4H174-AA = molecular target: T6, 4H174-AA; assay: two-hybrid library CCmax; settings: mean of both orientations
T6 chain: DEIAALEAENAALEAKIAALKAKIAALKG

4H1842-AA = molecular target: T7, 4H1842-AA; assay: two-hybrid library CCmax; settings: mean of both orientations
T7 chain: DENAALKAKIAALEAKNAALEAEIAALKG

4H1864-AA = molecular target: T8, 4H1864-AA; assay: two-hybrid library CCmax; settings: mean of both orientations
T8 chain: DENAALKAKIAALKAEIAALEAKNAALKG

4H1877-AA = molecular target: T9, 4H1877-AA; assay: two-hybrid library CCmax; settings: mean of both orientations
T9 chain: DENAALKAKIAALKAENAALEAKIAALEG

4H2109-AA = molecular target: T10, 4H2109-AA; assay: two-hybrid library CCmax; settings: mean of both orientations
T10 chain: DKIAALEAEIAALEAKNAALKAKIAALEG

4H2162-AA = molecular target: T11, 4H2162-AA; assay: two-hybrid library CCmax; settings: mean of both orientations
T11 chain: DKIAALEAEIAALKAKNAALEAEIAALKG

4H2253-AA = molecular target: T12, 4H2253-AA; assay: two-hybrid library CCmax; settings: mean of both orientations
T12 chain: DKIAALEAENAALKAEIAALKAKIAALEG

4H2274-AA = molecular target: T13, 4H2274-AA; assay: two-hybrid library CCmax; settings: mean of both orientations
T13 chain: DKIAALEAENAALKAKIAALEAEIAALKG

4H2330-AA = molecular target: T14, 4H2330-AA; assay: two-hybrid library CCmax; settings: mean of both orientations
T14 chain: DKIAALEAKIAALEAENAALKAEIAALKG

4H2389-AA = molecular target: T15, 4H2389-AA; assay: two-hybrid library CCmax; settings: mean of both orientations
T15 chain: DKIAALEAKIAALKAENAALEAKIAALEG

4H2438-AA = molecular target: T16, 4H2438-AA; assay: two-hybrid library CCmax; settings: mean of both orientations
T16 chain: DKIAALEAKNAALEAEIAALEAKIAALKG

4H2473-AA = molecular target: T17, 4H2473-AA; assay: two-hybrid library CCmax; settings: mean of both orientations
T17 chain: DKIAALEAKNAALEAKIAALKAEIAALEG

4H2649-AA = molecular target: T18, 4H2649-AA; assay: two-hybrid library CCmax; settings: mean of both orientations
T18 chain: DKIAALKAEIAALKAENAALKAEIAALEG

4H2698-AA = molecular target: T19, 4H2698-AA; assay: two-hybrid library CCmax; settings: mean of both orientations
T19 chain: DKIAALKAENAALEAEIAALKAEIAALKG

4H2725-AA = molecular target: T20, 4H2725-AA; assay: two-hybrid library CCmax; settings: mean of both orientations
T20 chain: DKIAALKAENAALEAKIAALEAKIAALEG

4H2865-AA = molecular target: T21, 4H2865-AA; assay: two-hybrid library CCmax; settings: mean of both orientations
T21 chain: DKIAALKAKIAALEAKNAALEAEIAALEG

4H3009-AA = molecular target: T22, 4H3009-AA; assay: two-hybrid library CCmax; settings: mean of both orientations
T22 chain: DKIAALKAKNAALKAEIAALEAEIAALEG

4H3016-AA = molecular target: T23, 4H3016-AA; assay: two-hybrid library CCmax; settings: mean of both orientations
T23 chain: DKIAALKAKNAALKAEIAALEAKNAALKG

4H310-AA = molecular target: T24, 4H310-AA; assay: two-hybrid library CCmax; settings: mean of both orientations
T24 chain: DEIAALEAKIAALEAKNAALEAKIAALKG

4H3120-AA = molecular target: T25, 4H3120-AA; assay: two-hybrid library CCmax; settings: mean of both orientations
T25 chain: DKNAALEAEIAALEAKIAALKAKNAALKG

4H3130-AA = molecular target: T26, 4H3130-AA; assay: two-hybrid library CCmax; settings: mean of both orientations
T26 chain: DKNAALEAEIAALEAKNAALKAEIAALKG

4H3165-AA = molecular target: T27, 4H3165-AA; assay: two-hybrid library CCmax; settings: mean of both orientations
T27 chain: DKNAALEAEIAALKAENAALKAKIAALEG

4H3381-AA = molecular target: T28, 4H3381-AA; assay: two-hybrid library CCmax; settings: mean of both orientations
T28 chain: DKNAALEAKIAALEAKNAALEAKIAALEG

4H3395-AA = molecular target: T29, 4H3395-AA; assay: two-hybrid library CCmax; settings: mean of both orientations
T29 chain: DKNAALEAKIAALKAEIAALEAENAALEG

4H3410-AA = molecular target: T30, 4H3410-AA; assay: two-hybrid library CCmax; settings: mean of both orientations
T30 chain: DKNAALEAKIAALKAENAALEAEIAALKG

4H3590-AA = molecular target: T31, 4H3590-AA; assay: two-hybrid library CCmax; settings: mean of both orientations
T31 chain: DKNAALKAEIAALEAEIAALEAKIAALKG

4H3697-AA = molecular target: T32, 4H3697-AA; assay: two-hybrid library CCmax; settings: mean of both orientations
T32 chain: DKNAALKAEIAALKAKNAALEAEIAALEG

4H3753-AA = molecular target: T33, 4H3753-AA; assay: two-hybrid library CCmax; settings: mean of both orientations
T33 chain: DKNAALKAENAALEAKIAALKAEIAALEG

4H3865-AA = molecular target: T34, 4H3865-AA; assay: two-hybrid library CCmax; settings: mean of both orientations
T34 chain: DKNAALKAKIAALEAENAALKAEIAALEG

4H458-AA = molecular target: T35, 4H458-AA; assay: two-hybrid library CCmax; settings: mean of both orientations
T35 chain: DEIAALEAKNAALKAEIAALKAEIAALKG

4H485-AA = molecular target: T36, 4H485-AA; assay: two-hybrid library CCmax; settings: mean of both orientations
T36 chain: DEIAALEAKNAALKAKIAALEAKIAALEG

4H536-AA = molecular target: T37, 4H536-AA; assay: two-hybrid library CCmax; settings: mean of both orientations
T37 chain: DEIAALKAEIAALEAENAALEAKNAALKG

4H570-AA = molecular target: T38, 4H570-AA; assay: two-hybrid library CCmax; settings: mean of both orientations
T38 chain: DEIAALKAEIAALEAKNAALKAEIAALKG

4H629-AA = molecular target: T39, 4H629-AA; assay: two-hybrid library CCmax; settings: mean of both orientations
T39 chain: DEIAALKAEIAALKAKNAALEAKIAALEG

4H710-AA = molecular target: T40, 4H710-AA; assay: two-hybrid library CCmax
T40 chain: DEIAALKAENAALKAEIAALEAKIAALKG

4H745-AA = molecular target: T41, 4H745-AA; assay: two-hybrid library CCmax; settings: mean of both orientations
T41 chain: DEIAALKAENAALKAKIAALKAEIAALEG

4H797-AA = molecular target: T42, 4H797-AA; assay: two-hybrid library CCmax; settings: mean of both orientations
T42 chain: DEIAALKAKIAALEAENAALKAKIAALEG

4H850-AA = molecular target: T43, 4H850-AA; assay: two-hybrid library CCmax; settings: mean of both orientations
T43 chain: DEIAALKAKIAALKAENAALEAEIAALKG

4H891-AA = molecular target: T44, 4H891-AA; assay: two-hybrid library CCmax; settings: mean of both orientations
T44 chain: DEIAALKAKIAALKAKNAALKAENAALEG

4H909-AA = molecular target: T45, 4H909-AA; assay: two-hybrid library CCmax; settings: mean of both orientations
T45 chain: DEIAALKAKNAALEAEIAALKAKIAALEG

4H930-AA = molecular target: T46, 4H930-AA; assay: two-hybrid library CCmax; settings: mean of both orientations
T46 chain: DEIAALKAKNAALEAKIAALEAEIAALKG

4H94-AA = molecular target: T47, 4H94-AA; assay: two-hybrid library CCmax; settings: mean of both orientations
T47 chain: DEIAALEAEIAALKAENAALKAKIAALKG

4H797-bN = molecular target: T48, 4H797-bN; assay: two-hybrid library CCNG1
T48 chain: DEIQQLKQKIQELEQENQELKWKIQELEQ

4H855-bN = molecular target: T49, 4H855-bN; assay: two-hybrid library CCNG1
T49 chain: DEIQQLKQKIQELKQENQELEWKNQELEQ

4H883-bN = molecular target: T50, 4H883-bN; assay: two-hybrid library CCNG1
T50 chain: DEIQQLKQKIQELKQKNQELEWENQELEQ

4H908-bN = molecular target: T51, 4H908-bN; assay: two-hybrid library CCNG1
T51 chain: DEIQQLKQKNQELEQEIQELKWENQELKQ

4H918-bN = molecular target: T52, 4H918-bN; assay: two-hybrid library CCNG1
T52 chain: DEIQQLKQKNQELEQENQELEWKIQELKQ

4H953-bN = molecular target: T53, 4H953-bN; assay: two-hybrid library CCNG1
T53 chain: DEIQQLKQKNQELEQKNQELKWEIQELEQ

4H967-bN = molecular target: T54, 4H967-bN; assay: two-hybrid library CCNG1
T54 chain: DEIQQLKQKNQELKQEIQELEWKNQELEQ

4H968-bN = molecular target: T55, 4H968-bN; assay: two-hybrid library CCNG1
T55 chain: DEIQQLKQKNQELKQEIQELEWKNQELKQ

P12bH1 = molecular target: T56, P12bH1; assay: two-hybrid library CCNG1
T56 chain: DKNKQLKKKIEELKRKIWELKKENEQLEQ

P6bH1 = molecular target: T57, P6bH1; assay: two-hybrid library CCNG1
T57 chain: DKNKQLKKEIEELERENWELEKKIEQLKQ

- interaction score (4H1478-AA): 0.0991
- interaction score (4H1579-AA): -0.103
- interaction score (4H1597-AA): -0.494
- interaction score (4H1626-AA): -1.52
- interaction score (4H171-AA): 0.9
- interaction score (4H174-AA): 1.4
- interaction score (4H1842-AA): -1.06
- interaction score (4H1864-AA): 1.68
- interaction score (4H1877-AA): -0.558
- interaction score (4H2109-AA): -0.882
- interaction score (4H2162-AA): -1.13
- interaction score (4H2253-AA): -0.889
- interaction score (4H2274-AA): -0.761
- interaction score (4H2330-AA): -1.56
- interaction score (4H2389-AA): 0.0289
- interaction score (4H2438-AA): -0.717
- interaction score (4H2473-AA): 2.04
- interaction score (4H2649-AA): -1.48
- interaction score (4H2698-AA): 1.64
- interaction score (4H2725-AA): 1.78
- interaction score (4H2865-AA): -1.39
- interaction score (4H3009-AA): 0.472
- interaction score (4H3016-AA): -1.29
- interaction score (4H310-AA): -0.927
- interaction score (4H3120-AA): -0.624
- interaction score (4H3130-AA): -0.211
- interaction score (4H3165-AA): -1.68
- interaction score (4H3381-AA): -1.47
- interaction score (4H3395-AA): 1.1
- interaction score (4H3410-AA): -1
- interaction score (4H3590-AA): 0.946
- interaction score (4H3697-AA): -1.54
- interaction score (4H3753-AA): 2.25
- interaction score (4H3865-AA): -1.31
- interaction score (4H458-AA): -0.241
- interaction score (4H485-AA): -0.796
- interaction score (4H536-AA): -1.16
- interaction score (4H570-AA): -1.51
- interaction score (4H629-AA): -1.23
- interaction score (4H710-AA): -0.15
- interaction score (4H745-AA): 2.14
- interaction score (4H797-AA): -1.28
- interaction score (4H850-AA): 0.0104
- interaction score (4H891-AA): -1.45
- interaction score (4H909-AA): -0.497
- interaction score (4H930-AA): -0.754
- interaction score (4H94-AA): -1.45
Binder: DENAALEAKNAALKAEIAALEAKIAALKG [4H1478-AA]

- interaction score (4H797-bN): 0.569
- interaction score (4H855-bN): 0.668
- interaction score (4H883-bN): -1.53
- interaction score (4H908-bN): -0.753
- interaction score (4H918-bN): 1.02
- interaction score (4H953-bN): -0.455
- interaction score (4H967-bN): -0.535
- interaction score (4H968-bN): -1.06
- interaction score (P12bH1): -0.66
- interaction score (P6bH1): 0.0343
Binder: DEIQQLKQKIQELEQENQELKWKIQELEQ [4H797-bN]
